In FireProtDB (doi:10.1021/bi962163z):

B1: Annexin A5, P08758 (parent)
chain: MAQVLRGTVTDFPGFDERADAETLRKAMKGLGTDEESILTLLTSRSNAQRQEISAAFKTLFGRDLLDDLKSELTGKFEKLIVALMKPSRLYDAYELKHALKGAGTNEKVLTEIIASRTPEELRAIKQVYEEEYGSSLEDDVVGDTSGYYQRMLVVLLQANRDPDAGIDEAQVEQDAQALFQAGELKWGTDEEKFITIFGTRSVSHLRKVFDKYMTISGFQIEETIDRETSGNLEQLLLAVVKSIRSIPAYLAETLYYAMKGAGTDDHTLIRVMVSRSEIDLFNIRKEFRKNFATSLYSMIKGDTSGDYKKALLLLCGEDD

Variants of: B1
Settings: Homo sapiens; pH 8; Thermal; DSC; Tris 50 mM; KCl 100 mM; reversible: no; structure 1AVR; whole UniProt chain shown

| Variant | Tm [°C] | unfolding enthalpy (calorimetric) [kcal/mol] | unfolding enthalpy (van 't Hoff) [kcal/mol] |
| --- | --- | --- | --- |
| E17G | 52.8 | 164 | 173 |
